Test results as given in the supplement of paper PMC7877785.
± gives the uncertainty stated by the source.

Test: self-splicing fitness, log relative to wild type (ln ratio); higher = more splicing; Tetrahymena group I intron in knt gene, E. coli kanamycin selection, DiMSum; sequences stand for … in CUCUCU…GGAGGGAAAAGUUAUCAGGCAUGCACCUGGUAGCUAGUCUUUAAACCAAUAGAUUGCAUCGGUUUAAAAGGCAAGACCGUCAAAUUGCGGGAAAGGGGUCAACAGCCGUUCAGUACCAAGUCUCAGGGGAAACUUUGAGAUGGCCUUGCAAAGGGUAUGGUAAUAAGCUGACGGACAUGGUCCUAACCACGCAGCCAAGUCCUAAGUCAACAGAUCUUCUGUUGAUAUGGAUGCAGUUCACAGACUAAAUGUCGGUCGGGGAAGAUGUAUUCUUCUCAUAAGAUAUAGUCGGACCUCUCCUUAAUGGGAGCUAGCGGAUGAAGUGAUGCAACACUGGAGCCGCUGGGAACUAAUUUGUAUGCGAAAGUAUAUUGAUUAGUUUUGGAGUACUCGUGGUCG
Method in brief: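 Six replicate transformations of E. coli BL21(DE3) with a pET-22b(+) library were grown overnight at 37°C or 30°C. The library randomised all eight P1ex-region intron nucleotides, the intron lying in the knt kanamycin-resistance gene, and plates were LB agar with or without 25 μg/mL kanamycin plus 100 μg/mL carbenicillin, 50 μM IPTG and 0.2% rhamnose. Pooled colonies were amplicon-sequenced on an Illumina HiSeq 2500, and fitness is the DiMSum error-weighted combination of wild-type-normalised replicate fold changes, kanamycin versus none.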

CCCAAGCAAUAUUACGUUAC
self-splicing fitness (ln) (30 °C): -4.13 ± 0.15 | self-splicing fitness (ln) (37 °C): -2.37 ± 0.13

UACAAGCAAUAUUACGAUAA
self-splicing fitness (ln) (30 °C): -1.93 ± 0.13 | self-splicing fitness (ln) (37 °C): -0.276 ± 0.12

CAAAAGCAAUAUUACGCCUU
self-splicing fitness (ln) (30 °C): -3.67 ± 0.17 | self-splicing fitness (ln) (37 °C): -0.986 ± 0.12

CCCUAGCAAUAUUACGUGCU
self-splicing fitness (ln) (30 °C): -2.99 ± 0.17 | self-splicing fitness (ln) (37 °C): -2.58 ± 0.24

AAACAGCAAUAUUACGCGCG
self-splicing fitness (ln) (30 °C): -1.2 ± 0.067 | self-splicing fitness (ln) (37 °C): -0.673 ± 0.081

AGCAAGCAAUAUUACGGUAG
self-splicing fitness (ln) (30 °C): -3.4 ± 0.14 | self-splicing fitness (ln) (37 °C): -2.75 ± 0.15

CAGUAGCAAUAUUACGUUCU
self-splicing fitness (ln) (37 °C): -1.41 ± 0.2

CGAGAGCAAUAUUACGGGUG
self-splicing fitness (ln) (30 °C): -2.95 ± 0.15 | self-splicing fitness (ln) (37 °C): -2.01 ± 0.16

AUAUAGCAAUAUUACGAAAA
self-splicing fitness (ln) (30 °C): -2.4 ± 0.41 | self-splicing fitness (ln) (37 °C): -1.72 ± 0.34

CCACAGCAAUAUUACGUAAG
self-splicing fitness (ln) (30 °C): -0.731 ± 0.038 | self-splicing fitness (ln) (37 °C): 0.388 ± 0.061

CAACAGCAAUAUUACGGGGA
self-splicing fitness (ln) (30 °C): -2.24 ± 0.093 | self-splicing fitness (ln) (37 °C): -2.14 ± 0.11

GGAGAGCAAUAUUACGAUGA
self-splicing fitness (ln) (30 °C): -2.47 ± 0.49

CAUUAGCAAUAUUACGCGUC
self-splicing fitness (ln) (30 °C): -2.64 ± 0.29 | self-splicing fitness (ln) (37 °C): -2.01 ± 0.26

UACGAGCAAUAUUACGGCUC
self-splicing fitness (ln) (37 °C): 0.0878 ± 0.5

UGCCAGCAAUAUUACGCUCA
self-splicing fitness (ln) (30 °C): -0.505 ± 0.061 | self-splicing fitness (ln) (37 °C): -0.207 ± 0.07

CUGUAGCAAUAUUACGGGGC
self-splicing fitness (ln) (30 °C): -4.95 ± 0.36 | self-splicing fitness (ln) (37 °C): -2.14 ± 0.19

UUACAGCAAUAUUACGCGAC
self-splicing fitness (ln) (30 °C): -2.37 ± 0.17 | self-splicing fitness (ln) (37 °C): -1.41 ± 0.18

CACUAGCAAUAUUACGACGG
self-splicing fitness (ln) (30 °C): -0.0504 ± 0.083 | self-splicing fitness (ln) (37 °C): -0.117 ± 0.082

CAGUAGCAAUAUUACGGGCC
self-splicing fitness (ln) (30 °C): -2.57 ± 0.31 | self-splicing fitness (ln) (37 °C): -2.19 ± 0.3

CAAUAGCAAUAUUACGGCUG
self-splicing fitness (ln) (30 °C): -0.286 ± 0.084 | self-splicing fitness (ln) (37 °C): -0.379 ± 0.098

CGUGAGCAAUAUUACGUGAA
self-splicing fitness (ln) (37 °C): -1.17 ± 0.22

ACUAAGCAAUAUUACGCCUC
self-splicing fitness (ln) (30 °C): -2.41 ± 0.21 | self-splicing fitness (ln) (37 °C): -1.64 ± 0.34

UAACAGCAAUAUUACGGGGG
self-splicing fitness (ln) (30 °C): -3.25 ± 0.27 | self-splicing fitness (ln) (37 °C): -1.9 ± 0.17

ACCUAGCAAUAUUACGGACA
self-splicing fitness (ln) (30 °C): -0.384 ± 0.075 | self-splicing fitness (ln) (37 °C): -0.189 ± 0.08

CACUAGCAAUAUUACGUCUU
self-splicing fitness (ln) (30 °C): -3.77 ± 0.3 | self-splicing fitness (ln) (37 °C): -2.75 ± 0.26

ACAGAGCAAUAUUACGAACG
self-splicing fitness (ln) (30 °C): -2.76 ± 0.19 | self-splicing fitness (ln) (37 °C): -1.45 ± 0.28

AUAAAGCAAUAUUACGCUGC
self-splicing fitness (ln) (30 °C): -3.15 ± 0.23 | self-splicing fitness (ln) (37 °C): -2.59 ± 0.33

ACCCAGCAAUAUUACGUAGC
self-splicing fitness (ln) (30 °C): -0.673 ± 0.044 | self-splicing fitness (ln) (37 °C): -0.163 ± 0.064

UUGUAGCAAUAUUACGGCAA
self-splicing fitness (ln) (30 °C): -0.208 ± 0.12 | self-splicing fitness (ln) (37 °C): -0.27 ± 0.16

GAGCAGCAAUAUUACGUUCU
self-splicing fitness (ln) (37 °C): -2.48 ± 0.26

GGGUAGCAAUAUUACGACUA
self-splicing fitness (ln) (30 °C): -0.339 ± 0.1 | self-splicing fitness (ln) (37 °C): 0.878 ± 0.15

GCCAAGCAAUAUUACGAUGU
self-splicing fitness (ln) (30 °C): -0.536 ± 0.061 | self-splicing fitness (ln) (37 °C): 0.0237 ± 0.084

UCCUAGCAAUAUUACGAAUG
self-splicing fitness (ln) (37 °C): -2.76 ± 0.44

AGCUAGCAAUAUUACGCGAC
self-splicing fitness (ln) (30 °C): -3.48 ± 0.47 | self-splicing fitness (ln) (37 °C): -2.38 ± 0.43

CAUGAGCAAUAUUACGUGAG
self-splicing fitness (ln) (30 °C): -3.88 ± 0.37 | self-splicing fitness (ln) (37 °C): -2.55 ± 0.24

GGGCAGCAAUAUUACGUCCA
self-splicing fitness (ln) (30 °C): -1.17 ± 0.23 | self-splicing fitness (ln) (37 °C): -1.01 ± 0.28

CGAGAGCAAUAUUACGAUGA
self-splicing fitness (ln) (30 °C): -2.11 ± 0.28 | self-splicing fitness (ln) (37 °C): -1.27 ± 0.25

UCUUAGCAAUAUUACGAGGA
self-splicing fitness (ln) (30 °C): -2.34 ± 0.19 | self-splicing fitness (ln) (37 °C): -1.58 ± 0.19

UCAGAGCAAUAUUACGACAU
self-splicing fitness (ln) (30 °C): -4.002 ± 0.035 | self-splicing fitness (ln) (37 °C): -2.6 ± 0.045

CCAGAGCAAUAUUACGACGC
self-splicing fitness (ln) (30 °C): -4.17 ± 0.34 | self-splicing fitness (ln) (37 °C): -2.11 ± 0.28
